The target of assay [1] is PaSOD-1 (Cys-less CuZnSOD from Paenibacillus lautus NBRC 15380, WP_246059278.1 without the predicted signal peptide) (Paenibacillus lautus NBRC 15380). The experiment in a line: SEC-MALS; holo form (copper and zinc bound); 20 μM protein in MN buffer (50 mM Mops, 100 mM NaCl, pH 7.0); Cosmosil 5Diol-300-II column, miniDAWN TREOS. (In general: Size exclusion chromatography separates by hydrodynamic size, large species first.)

Assay [2] shares this target. Description: SEC-MALS; apo form; 20 μM protein in MN buffer (50 mM Mops, 100 mM NaCl, pH 7.0); Cosmosil 5Diol-300-II column, miniDAWN TREOS.
Assay [3] addresses PaSOD-2 (Cys-less CuZnSOD from Paenibacillus lautus NBRC 15380, WP_246059286.1 without the predicted signal peptide) (Paenibacillus lautus NBRC 15380). Description: SEC-MALS; holo form (copper and zinc bound); 20 μM protein in MN buffer (50 mM Mops, 100 mM NaCl, pH 7.0); Cosmosil 5Diol-300-II column, miniDAWN TREOS.
For assay [4] the target is unchanged. Description: SEC-MALS; apo form; 20 μM protein in MN buffer (50 mM Mops, 100 mM NaCl, pH 7.0); Cosmosil 5Diol-300-II column, miniDAWN TREOS.

Here are results for two substances from article PMC10432803.

For orientation: stoichiometry N means a count of units in the complex or per binding partner. On to “PaSOD-1 (Cys-less CuZnSOD from Paenibacillus lautus NBRC 15380, WP_246059278.1 without the predicted signal peptide) (enzyme)”, for which the stoichiometry N in assay [1] and in assay [2] was 2 in each case.

Regarding “PaSOD-2 (Cys-less CuZnSOD from Paenibacillus lautus NBRC 15380, WP_246059286.1 without the predicted signal peptide) (enzyme)”, the stoichiometry N in assay [3] and in assay [4] was 2 in each case.
